Measurements published in paper PMC5634638.
“And” between values parts separate entries of the source, which are not always exact repeats. Identical values can stand only once.

What was measured:
[1] = target: Schizosaccharomyces pombe ribosome (S. pombe); assay: co-sedimentation; NatA constant at 0.5 μM, ribosome 0.1–11 μM, 30% sucrose cushion; anti-His western blot of Naa15, proportion in the pellet quantified; fit assumes 1:1
[2] = target: Schizosaccharomyces pombe ribosome (S. pombe); assay: co-sedimentation; ribosome 1 μM and NatA 1.2 μM layered on Buffer G with 30% sucrose, ultracentrifuged; pellet and supernatant on SDS-PAGE

percent pulldown (highest reached at the ribosome concentrations used) [1] [%]	Kd [1] [µM]	stoichiometry N [2]	Substance
< 30			NatA K9E (Naa15 K27E, K28E, K31E, K605E, K606E, K609E, K610E, K612E, K613E with Naa10) (complex)
	1.1	1.13 and 1.28	NatA (wild type; Naa15-Naa10 complex of Schizosaccharomyces pombe)
